# Reference: patent publication US20050037969A1 (ARBOR VITA, published 2005)
# Ends that are not written are not given here. * marks the point of attachment. Biotin = O=C1N[C@H]2[C@H](CS[C@H]2CCCCC(=O)*)N1
# T1: GST-cytohesin binding protein PDZ domain fusion protein (Homo sapiens (Human), UniProt O60759 74-165)
# T1 construct: also called CBP; not shown: glutathione S-transferase encoded by vector pGEX-3X (Pharmacia)
# T1 sequence: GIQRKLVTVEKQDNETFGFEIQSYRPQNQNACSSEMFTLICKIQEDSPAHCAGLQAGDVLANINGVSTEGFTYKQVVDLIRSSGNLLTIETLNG
# T2: K559 PDZ-GST fusion protein (Homo sapiens (Human), UniProt Q9Y6V0 4489-4593)
# T2 construct: Order of GST and PDZ part and limits not seen in the excerpts
# T2 sequence: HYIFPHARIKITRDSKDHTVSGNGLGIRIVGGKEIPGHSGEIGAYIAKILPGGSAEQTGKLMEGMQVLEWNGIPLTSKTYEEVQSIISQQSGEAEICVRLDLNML
# T3: GST-TAX-IP2 PDZ domain fusion protein (human, UniProt O14908 129-216)
# T3 construct: also called TAX-1P2; TAX2; not shown: glutathione S-transferase encoded by vector pGEX-3X (Pharmacia)
# T3 chain: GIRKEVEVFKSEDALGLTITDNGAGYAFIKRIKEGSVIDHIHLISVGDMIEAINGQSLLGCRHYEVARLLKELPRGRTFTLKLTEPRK
# T4: TAX-IP33 PDZ-GST fusion protein (Homo sapiens (Human), UniProt O14910 103-193)
# T4 construct: Order of GST and PDZ part and limits not seen in the excerpts
# T4 sequence: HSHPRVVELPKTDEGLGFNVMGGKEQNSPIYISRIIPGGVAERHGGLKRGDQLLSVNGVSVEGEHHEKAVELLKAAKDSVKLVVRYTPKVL
# T5: SP short PDZ-GST fusion protein (Homo sapiens (Human), UniProt O43464 350-435)
# T5 construct: The label SP short is not explained in the excerpts
# T5 sequence: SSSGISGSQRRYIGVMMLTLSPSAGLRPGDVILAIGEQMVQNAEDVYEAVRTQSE
# T6: GST-mouse syntenin fusion protein (Mus musculus, UniProt O08992 108-286)
# T6 construct: also called Mus musculus Syntenin; not shown: glutathione S-transferase encoded by vector pGEX-3X (Pharmacia)
# T6 chain: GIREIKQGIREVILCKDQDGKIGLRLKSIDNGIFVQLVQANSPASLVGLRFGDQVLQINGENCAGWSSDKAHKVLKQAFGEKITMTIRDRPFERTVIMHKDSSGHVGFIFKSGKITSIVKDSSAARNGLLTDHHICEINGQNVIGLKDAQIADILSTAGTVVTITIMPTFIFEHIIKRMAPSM
# T7: GST-DVL1 PDZ domain fusion protein (human, UniProt O14640 247-339)
# T7 construct: also called human dishevelled segment polarity protein homolog; not shown: glutathione S-transferase encoded by vector pGEX-3X (Pharmacia)
# T7 sequence: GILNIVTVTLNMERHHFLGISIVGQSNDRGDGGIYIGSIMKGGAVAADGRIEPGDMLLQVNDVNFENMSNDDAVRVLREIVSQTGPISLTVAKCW
# T8: GST-KIAA0303 PDZ domain fusion protein (Homo sapiens (Human), UniProt O15021 1138-1228)
# T8 construct: also called K303; not shown: glutathione S-transferase encoded by vector pGEX-3X (Pharmacia)
# T8 sequence: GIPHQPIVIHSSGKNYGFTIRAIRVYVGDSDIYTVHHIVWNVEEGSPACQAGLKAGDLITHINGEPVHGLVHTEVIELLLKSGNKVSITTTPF
# T9: GST-LIM protein PDZ domain fusion protein (Human, UniProt Q96HC4 2-85)
# T9 construct: also called Human LIM protein; not shown: glutathione S-transferase encoded by vector pGEX-3X (Pharmacia)
# T9 sequence: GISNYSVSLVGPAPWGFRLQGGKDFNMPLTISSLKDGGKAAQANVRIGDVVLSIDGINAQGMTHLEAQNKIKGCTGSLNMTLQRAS
# T10: GST-TAX-IP40 PDZ domain fusion protein (human, UniProt Q6B4M5 150-252 (rat entry))
# T10 construct: also called TAX40; not shown: glutathione S-transferase encoded by vector pGEX-3X (Pharmacia)
# T10 sequence: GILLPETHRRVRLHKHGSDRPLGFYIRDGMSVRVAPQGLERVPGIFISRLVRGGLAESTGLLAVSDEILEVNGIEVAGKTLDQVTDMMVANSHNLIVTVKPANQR
# T11: X11β PDZ-GST fusion protein (Rattus norvegicus (Rat), UniProt O35431 560-745)
# T11 construct: Order of GST and PDZ part and limits not seen in the excerpts
# T11 chain: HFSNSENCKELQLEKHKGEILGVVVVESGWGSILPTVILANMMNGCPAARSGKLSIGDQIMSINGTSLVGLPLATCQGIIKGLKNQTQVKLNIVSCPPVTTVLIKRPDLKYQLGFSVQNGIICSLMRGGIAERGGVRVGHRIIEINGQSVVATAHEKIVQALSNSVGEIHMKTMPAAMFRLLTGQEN
# T12: GST-DLG5 (p-dlg) PDZ domain fusion protein (Human, UniProt Q8TDM6 1343-1583)
# T12 construct: also called Human discs large protein p-dlg; not shown: glutathione S-transferase encoded by vector pGEX-3X (Pharmacia)
# T12 sequence: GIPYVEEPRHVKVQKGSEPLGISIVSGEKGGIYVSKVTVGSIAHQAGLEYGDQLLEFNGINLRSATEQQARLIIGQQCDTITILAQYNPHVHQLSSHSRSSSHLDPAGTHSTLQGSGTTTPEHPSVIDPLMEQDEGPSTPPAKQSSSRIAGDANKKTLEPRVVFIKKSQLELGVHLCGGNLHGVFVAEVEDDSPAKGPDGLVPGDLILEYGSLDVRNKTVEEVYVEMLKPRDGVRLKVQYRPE
# T13: GST-CASK PDZ domain fusion protein (Homo sapiens, UniProt O14936 486-575)
# T13 construct: also called Homo sapiens CASK protein
# T13 sequence: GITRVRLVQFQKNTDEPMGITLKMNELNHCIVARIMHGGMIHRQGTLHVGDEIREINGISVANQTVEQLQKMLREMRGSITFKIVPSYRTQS
# T14: GEF PDZ-GST fusion protein (Homo sapiens (Human), UniProt Q8TEU7 293-400)
# T14 construct: The label GEF is not explained in the excerpts
# T14 sequence: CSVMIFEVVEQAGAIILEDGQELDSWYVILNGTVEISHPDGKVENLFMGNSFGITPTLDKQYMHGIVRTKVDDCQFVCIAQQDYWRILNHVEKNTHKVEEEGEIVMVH
# B1: CC CKR-4 C-terminal peptide AA44L (peptide)
# peptide: Biotin-DTPSSSYTQSTMDHDLHDAL
# notes: Only the last four residues are seen in the excerpts
# Target: T1, GST-cytohesin binding protein PDZ …
# Test: A/G assays
row,binding result,Binder
1,no binding,"Biotin-DLGNMEENKKLEENNHKTEA (also called CD166 (CD6L)) [CD166 C-terminal peptide AA20L, biotinylated]"
2,no binding,"Biotin-ARHRVTSYTSSSVNVSSNL [CDW128A (IL8RA) C-terminal peptide AA29.1L, biotinylated]"
3,no binding,B1
4,no binding,"Biotin-SPQPDSTDNDDYDDISAA [CD6 C-terminal peptide AA6L, biotinylated]"

# Target: T2, K559 PDZ-GST fusion protein
# Test: A/G assays
row,binding result,Binder
1,no binding,"Biotin-DLGNMEENKKLEENNHKTEA (also called CD166 (CD6L)) [CD166 C-terminal peptide AA20L, biotinylated]"
2,no binding,"Biotin-ARHRVTSYTSSSVNVSSNL [CDW128A (IL8RA) C-terminal peptide AA29.1L, biotinylated]"
3,no binding,B1
4,no binding,"Biotin-SPQPDSTDNDDYDDISAA [CD6 C-terminal peptide AA6L, biotinylated]"

# Target: T3, GST-TAX-IP2 PDZ domain fusion protein
# Test: A/G assays
row,binding result,Binder
1,no binding,"Biotin-DLGNMEENKKLEENNHKTEA (also called CD166 (CD6L)) [CD166 C-terminal peptide AA20L, biotinylated]"
2,no binding,"Biotin-ARHRVTSYTSSSVNVSSNL [CDW128A (IL8RA) C-terminal peptide AA29.1L, biotinylated]"
3,no binding,B1
4,no binding,"Biotin-SPQPDSTDNDDYDDISAA [CD6 C-terminal peptide AA6L, biotinylated]"

# Target: T4, TAX-IP33 PDZ-GST fusion protein
# Test: A/G assays
row,binding result,Binder
1,no binding,"Biotin-DLGNMEENKKLEENNHKTEA (also called CD166 (CD6L)) [CD166 C-terminal peptide AA20L, biotinylated]"
2,no binding,"Biotin-ARHRVTSYTSSSVNVSSNL [CDW128A (IL8RA) C-terminal peptide AA29.1L, biotinylated]"
3,no binding,B1
4,no binding,"Biotin-SPQPDSTDNDDYDDISAA [CD6 C-terminal peptide AA6L, biotinylated]"

# Target: T5, SP short PDZ-GST fusion protein
# Test: A/G assays
row,binding result,Binder
1,no binding,"Biotin-DLGNMEENKKLEENNHKTEA (also called CD166 (CD6L)) [CD166 C-terminal peptide AA20L, biotinylated]"
2,no binding,"Biotin-ARHRVTSYTSSSVNVSSNL [CDW128A (IL8RA) C-terminal peptide AA29.1L, biotinylated]"
3,no binding,B1
4,no binding,"Biotin-SPQPDSTDNDDYDDISAA [CD6 C-terminal peptide AA6L, biotinylated]"

# Target: T6, GST-mouse syntenin fusion protein
# Test: A/G assays
row,binding result,Binder
1,no binding,"Biotin-DLGNMEENKKLEENNHKTEA (also called CD166 (CD6L)) [CD166 C-terminal peptide AA20L, biotinylated]"
2,no binding,"Biotin-ARHRVTSYTSSSVNVSSNL [CDW128A (IL8RA) C-terminal peptide AA29.1L, biotinylated]"
3,no binding,B1
4,no binding,"Biotin-SPQPDSTDNDDYDDISAA [CD6 C-terminal peptide AA6L, biotinylated]"

# Target: T7, GST-DVL1 PDZ domain fusion protein
# Test: A/G assays
row,binding result,Binder
1,no binding,"Biotin-DLGNMEENKKLEENNHKTEA (also called CD166 (CD6L)) [CD166 C-terminal peptide AA20L, biotinylated]"
2,no binding,"Biotin-ARHRVTSYTSSSVNVSSNL [CDW128A (IL8RA) C-terminal peptide AA29.1L, biotinylated]"
3,no binding,B1
4,no binding,"Biotin-SPQPDSTDNDDYDDISAA [CD6 C-terminal peptide AA6L, biotinylated]"

# Target: T8, GST-KIAA0303 PDZ domain fusion protein
# Test: A/G assays
row,binding result,Binder
1,no binding,"Biotin-DLGNMEENKKLEENNHKTEA (also called CD166 (CD6L)) [CD166 C-terminal peptide AA20L, biotinylated]"
2,no binding,"Biotin-ARHRVTSYTSSSVNVSSNL [CDW128A (IL8RA) C-terminal peptide AA29.1L, biotinylated]"
3,no binding,B1
4,no binding,"Biotin-SPQPDSTDNDDYDDISAA [CD6 C-terminal peptide AA6L, biotinylated]"

# Target: T9, GST-LIM protein PDZ domain fusion …
# Test: A/G assays
row,binding result,Binder
1,no binding,"Biotin-DLGNMEENKKLEENNHKTEA (also called CD166 (CD6L)) [CD166 C-terminal peptide AA20L, biotinylated]"
2,no binding,"Biotin-ARHRVTSYTSSSVNVSSNL [CDW128A (IL8RA) C-terminal peptide AA29.1L, biotinylated]"
3,no binding,B1
4,no binding,"Biotin-SPQPDSTDNDDYDDISAA [CD6 C-terminal peptide AA6L, biotinylated]"

# Target: T10, GST-TAX-IP40 PDZ domain fusion protein
# Test: A/G assays
row,binding result,Binder
1,no binding,"Biotin-DLGNMEENKKLEENNHKTEA (also called CD166 (CD6L)) [CD166 C-terminal peptide AA20L, biotinylated]"
2,no binding,"Biotin-ARHRVTSYTSSSVNVSSNL [CDW128A (IL8RA) C-terminal peptide AA29.1L, biotinylated]"
3,no binding,B1
4,no binding,"Biotin-SPQPDSTDNDDYDDISAA [CD6 C-terminal peptide AA6L, biotinylated]"

# Target: T11, X11β PDZ-GST fusion protein
# Test: A/G assays
row,binding result,Binder
1,no binding,"Biotin-DLGNMEENKKLEENNHKTEA (also called CD166 (CD6L)) [CD166 C-terminal peptide AA20L, biotinylated]"
2,no binding,"Biotin-ARHRVTSYTSSSVNVSSNL [CDW128A (IL8RA) C-terminal peptide AA29.1L, biotinylated]"
3,no binding,B1
4,no binding,"Biotin-SPQPDSTDNDDYDDISAA [CD6 C-terminal peptide AA6L, biotinylated]"

# Target: T12, GST-DLG5 (p-dlg) PDZ domain fusion …
# Test: A/G assays
row,binding result,Binder
1,no binding,"Biotin-DLGNMEENKKLEENNHKTEA (also called CD166 (CD6L)) [CD166 C-terminal peptide AA20L, biotinylated]"
2,no binding,"Biotin-ARHRVTSYTSSSVNVSSNL [CDW128A (IL8RA) C-terminal peptide AA29.1L, biotinylated]"
3,no binding,B1
4,no binding,"Biotin-SPQPDSTDNDDYDDISAA [CD6 C-terminal peptide AA6L, biotinylated]"

# Target: T13, GST-CASK PDZ domain fusion protein
# Test: A/G assays
row,binding result,Binder
1,no binding,"Biotin-DLGNMEENKKLEENNHKTEA (also called CD166 (CD6L)) [CD166 C-terminal peptide AA20L, biotinylated]"
2,no binding,"Biotin-ARHRVTSYTSSSVNVSSNL [CDW128A (IL8RA) C-terminal peptide AA29.1L, biotinylated]"
3,no binding,B1
4,no binding,"Biotin-SPQPDSTDNDDYDDISAA [CD6 C-terminal peptide AA6L, biotinylated]"

# Target: T14, GEF PDZ-GST fusion protein
# Test: A/G assays
row,binding result,Binder
1,no binding,"Biotin-DLGNMEENKKLEENNHKTEA (also called CD166 (CD6L)) [CD166 C-terminal peptide AA20L, biotinylated]"
2,no binding,"Biotin-ARHRVTSYTSSSVNVSSNL [CDW128A (IL8RA) C-terminal peptide AA29.1L, biotinylated]"
3,no binding,B1
4,no binding,"Biotin-SPQPDSTDNDDYDDISAA [CD6 C-terminal peptide AA6L, biotinylated]"
